B1: 9.1RF S298A/E333A/K334A IgG (antibody)
light: DIQMTQSPSSLSASVGDRVTITCKSSQSLLYSSNQNNYLAWYQQKPGKAPKLLIYWASTRESGVPSRFSGSGSGTDFTLTISSLQPEDFATYYCQQYYTYPYTFGQGTKVEIKRTVAAPSVFIFPPSDEQLKSGTASVVCLLNNFYPREAKVQWKVDNALQSGNSQESVTEQDSKDSTYSLSSTLTLSKADYEKHKVYACEVTHQGLSSPVTKSFNRGEC
heavy: EVQLVESGGGLVQPGGSLRLSCAASGFTVTAYYMSWVRQAPGKGLEWVGFIRDKANGYTTEYNPSVKGRFTISRDTSKNTFYLQMNSLRAEDTAVYYCAQVRRALDYWGQGTLVTVSSASTKGPSVFPLAPSSKSTSGGTAALGCLVKDYFPEPVTVSWNSGALTSGVHTFPAVLQSSGLYSLSSVVTVPSSSLGTQTYICNVNHKPSNTKVDKKVEPKSCDKTHTCPPCPAPELLGGPSVFLFPPKPKDTLMISRTPEVTCVVVDVSHEDPEVKFNWYVDGVEVHNAKTKPREEQYNATYRVVSVLTVLHQDWLNGKEYKCKVSNKALPAPIAATISKAKGQPREPQVYTLPPSREEMTKNQVSLTCLVKGFYPSDIAVEWESNGQPENNYKTTPPVLDSDGSFFLYSKLTVDKSRWQQGNVFSCSVMHEALHNHYTQKSLSLSPG
notes: Fc variant of 9.1RF, transient CHO expression; copies: 2 + 2
B2: 9.1RF IgG antibody (antibody)
light: DIQMTQSPSSLSASVGDRVTITCKSSQSLLYSSNQNNYLAWYQQKPGKAPKLLIYWASTRESGVPSRFSGSGSGTDFTLTISSLQPEDFATYYCQQYYTYPYTFGQGTKVEIKRTVAAPSVFIFPPSDEQLKSGTASVVCLLNNFYPREAKVQWKVDNALQSGNSQESVTEQDSKDSTYSLSSTLTLSKADYEKHKVYACEVTHQGLSSPVTKSFNRGEC
heavy: not shown
notes: produced in CHO cells; also called h9.1-RF; Hu9.1-RF-IgG; copies: 2 + 2
B3: 9.1RF S298A/K326A/E333A/K334A IgG (antibody)
light: DIQMTQSPSSLSASVGDRVTITCKSSQSLLYSSNQNNYLAWYQQKPGKAPKLLIYWASTRESGVPSRFSGSGSGTDFTLTISSLQPEDFATYYCQQYYTYPYTFGQGTKVEIKRTVAAPSVFIFPPSDEQLKSGTASVVCLLNNFYPREAKVQWKVDNALQSGNSQESVTEQDSKDSTYSLSSTLTLSKADYEKHKVYACEVTHQGLSSPVTKSFNRGEC
heavy: EVQLVESGGGLVQPGGSLRLSCAASGFTVTAYYMSWVRQAPGKGLEWVGFIRDKANGYTTEYNPSVKGRFTISRDTSKNTFYLQMNSLRAEDTAVYYCAQVRRALDYWGQGTLVTVSSASTKGPSVFPLAPSSKSTSGGTAALGCLVKDYFPEPVTVSWNSGALTSGVHTFPAVLQSSGLYSLSSVVTVPSSSLGTQTYICNVNHKPSNTKVDKKVEPKSCDKTHTCPPCPAPELLGGPSVFLFPPKPKDTLMISRTPEVTCVVVDVSHEDPEVKFNWYVDGVEVHNAKTKPREEQYNATYRVVSVLTVLHQDWLNGKEYKCKVSNAALPAPIAATISKAKGQPREPQVYTLPPSREEMTKNQVSLTCLVKGFYPSDIAVEWESNGQPENNYKTTPPVLDSDGSFFLYSKLTVDKSRWQQGNVFSCSVMHEALHNHYTQKSLSLSPG
notes: as for B1

Assays:
[1] = molecular target: T1, human FcγRI extracellular domain, His-tagged GST fusion (human, UniProt P12314 16-292); assay: ELISA, captured FcgR-GST; EC50herceptin/EC50sample
T1 construct: extracellular domain; also called hFcgRI; Human I

[2] = molecular target: T2, human FcγRIIa extracellular domain, His-tagged GST fusion (human, UniProt P12318 34-217); assay: ELISA, captured FcgR-GST; EC50herceptin/EC50sample
T2 construct: extracellular domain; also called hFcgRIIa; Human IIa
T2 sequence (looked up): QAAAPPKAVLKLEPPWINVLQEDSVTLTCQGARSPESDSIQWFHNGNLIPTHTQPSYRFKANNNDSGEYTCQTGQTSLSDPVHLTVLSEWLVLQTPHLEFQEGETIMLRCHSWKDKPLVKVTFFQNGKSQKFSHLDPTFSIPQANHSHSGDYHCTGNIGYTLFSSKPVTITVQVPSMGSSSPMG

[3] = molecular target: T3, mouse FcγRIII extracellular domain, His-tagged GST fusion (mouse, UniProt P08508 31-215); assay: ELISA, captured FcgR-GST; EC50herceptin/EC50sample
T3 construct: extracellular domain; also called Mouse III
T3 sequence (looked up): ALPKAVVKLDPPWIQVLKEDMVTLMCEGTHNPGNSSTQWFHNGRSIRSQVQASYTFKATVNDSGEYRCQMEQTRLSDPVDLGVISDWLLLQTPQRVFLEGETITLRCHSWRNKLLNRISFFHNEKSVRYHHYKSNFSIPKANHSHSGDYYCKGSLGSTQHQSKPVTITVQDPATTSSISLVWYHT

[4] = molecular target: T4, mouse FcγRII extracellular domain, His-tagged GST fusion (mouse, UniProt P08101 30-210); assay: ELISA, captured FcgR-GST; EC50herceptin/EC50sample
T4 construct: extracellular domain; also called Mouse II
T4 sequence (looked up): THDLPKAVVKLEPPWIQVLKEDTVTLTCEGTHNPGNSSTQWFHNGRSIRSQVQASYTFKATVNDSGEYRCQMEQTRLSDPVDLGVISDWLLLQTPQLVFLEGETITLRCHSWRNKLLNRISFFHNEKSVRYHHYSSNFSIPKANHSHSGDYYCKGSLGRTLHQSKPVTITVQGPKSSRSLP

[5] = molecular target: T5, mouse FcγRI extracellular domain, His-tagged GST fusion (mouse, UniProt P26151 25-297); assay: ELISA, captured FcgR-GST; EC50herceptin/EC50sample
T5 construct: extracellular domain; also called Mouse I
T5 sequence (looked up): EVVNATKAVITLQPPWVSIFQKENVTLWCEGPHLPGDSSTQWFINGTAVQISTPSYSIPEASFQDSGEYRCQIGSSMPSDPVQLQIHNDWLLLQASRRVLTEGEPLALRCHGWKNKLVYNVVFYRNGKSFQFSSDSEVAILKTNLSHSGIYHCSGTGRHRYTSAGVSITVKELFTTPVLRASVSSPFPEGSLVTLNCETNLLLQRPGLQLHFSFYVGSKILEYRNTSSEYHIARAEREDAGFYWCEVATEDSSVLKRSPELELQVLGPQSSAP

[6] = molecular target: T6, human FcγRIIb extracellular domain, His-tagged GST fusion (human, UniProt P31994 43-217); assay: ELISA, captured FcgR-GST; EC50herceptin/EC50sample
T6 construct: extracellular domain; also called hFcgRIIb; Human IIb
T6 sequence (looked up): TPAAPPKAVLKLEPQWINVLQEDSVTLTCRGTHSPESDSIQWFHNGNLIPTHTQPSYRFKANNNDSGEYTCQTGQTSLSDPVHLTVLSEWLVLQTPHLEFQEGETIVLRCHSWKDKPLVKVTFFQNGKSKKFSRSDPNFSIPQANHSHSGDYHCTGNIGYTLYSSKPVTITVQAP

[7] = molecular target: T7, human BR3 expressed on cells (human, UniProt Q96RJ3 1-184); assay: cell-based or functional assay
[8] = molecular target: T7, human BR3 expressed on cells; assay: BJAB cells, competition with biotin-BAFF
[9] = molecular target: T2, human FcγRIIa extracellular domain, …; assay: ELISA, receptor-His-GST captured by anti-GST, IgG complexed with anti-kappa F(ab')2
[10] = molecular target: T1, human FcγRI extracellular domain, …; assay: ELISA, captured FcgR-GST; A450 ratio to 9.1RF
[11] = molecular target: T2, human FcγRIIa extracellular domain, …; assay: ELISA, captured FcgR-GST; A450 ratio to 9.1RF
[12] = molecular target: T6, human FcγRIIb extracellular domain, …; assay: ELISA, captured FcgR-GST; A450 ratio to 9.1RF
[13] = molecular target: T8, human BR3 extracellular domain (human, UniProt Q96RJ3 1-61); assay: SPR, IgG on chip, BR3 ECD in solution
T8 construct: biotinylated where used as tracer; also called hBR3-ECD; BR3-ECD

[14] = molecular target: T7, human BR3 expressed on cells; assay: BJAB cells, direct binding
cynomolgus FcRn [15] = molecular target: T9, cynomolgus FcRn (cynomolgus monkey, UniProt Q8SPV9 24-297; Q8SPW0 21-119, limits assumed); assay: SPR, FcRn on chip, kinetic, pH 6.0 (KDa)
T9 construct: construct not described; also called cynoFcRn; cyno FcRn

human FcRn [16] = molecular target: T10, human FcRn (human, UniProt P55899 24-297; P61769 21-119, limits assumed); assay: SPR, FcRn on chip, kinetic, pH 6.0 (KDa)
T10 construct: construct not described; also called huFcRn

cynomolgus FcRn [17] = molecular target: T9, cynomolgus FcRn; assay: SPR, FcRn on chip, equilibrium, pH 6.0 (KDb)
human FcRn [18] = molecular target: T10, human FcRn; assay: SPR, FcRn on chip, equilibrium, pH 6.0 (KDb)
[19] = molecular target: T1, human FcγRI extracellular domain, …; assay: ELISA, receptor-His-GST captured by anti-GST, uncomplexed IgG
cynomolgus FcRn [20] = molecular target: T9, cynomolgus FcRn; assay: SPR, FcRn on chip, kinetic, pH 6
human FcRn [21] = molecular target: T10, human FcRn; assay: SPR, FcRn on chip, kinetic, pH 6

Binder | fold improvement in binding vs Herceptin [1] [fold] | fold improvement in binding vs Herceptin [2] [fold] | fold improvement in binding vs Herceptin [3] [fold] | fold improvement in binding vs Herceptin [4] [fold] | fold improvement in binding vs Herceptin [5] [fold] | fold improvement in binding vs Herceptin [6] [fold] | ADCC activity relative to 9.1wt (relative EC50 values) [7] [fold] | ADCC on BJAB cells (LDH release), EC50 [7] [nM] | other results
B1 | 0.7 | 0.2 | 0.6 | 0.4 | 2.5 | 0.4 | 2.8 | < 1 | 
B2 | 1 | 2.3 | 0.8 | 0.7 | 1.2 | 0.7 |  |  | IC50 [8]: 0.68 nM; EC50 (read off the curve) [9]: ~1 µg/mL; binding relative to 9.1RF [10]: 1 ratio; binding relative to 9.1RF [11]: 1 ratio; binding relative to 9.1RF [12]: 1 ratio; Kd [13]: 0.169 nM; koff [13]: 0.000309 s⁻¹; kon [13]: 1.8e+06 M⁻¹ s⁻¹; EC50 [14]: 0.46 nM; Kd (cynomolgus FcRn [15]): 191 nM; Kd (human FcRn [16]): 123 nM; Kd (cynomolgus FcRn [17]): 186 nM; Kd (human FcRn [18]): 118 nM; EC50 (read off the curve) [19]: ~0.006 µg/mL; koff (cynomolgus FcRn [20]): 0.192 s⁻¹; kon (cynomolgus FcRn [20]): 1.01e+06 M⁻¹ s⁻¹; koff (human FcRn [21]): 0.0784 s⁻¹; kon (human FcRn [21]): 635000 M⁻¹ s⁻¹
B3 | 0.6 | 0.2 | 1.2 | 1.3 | 1.9 | 0.7 | 3 | < 1 | 

Source: patent US20100280227A1 (Genentech, published 2010)
